How the values were obtained:
[1] = molecular target: natively expressed mouse PD-L1 on mouse tumor cells (Mus musculus (endogenous in Renca cells), UniProt Q9EP73); assay: flow cytometry on cells
[2] = molecular target: recombinant mouse PD-L1–human Fc chimeric fusion protein (mouse, UniProt Q9EP73 19-239, conjugated with europium cryptate trisbipyridine–N-hydroxysuccinimide); assay: AlphaScreen or HTRF
Chain of recombinant mouse PD-L1–human Fc chimeric fusion protein (Q9EP73 19-239, change not shown): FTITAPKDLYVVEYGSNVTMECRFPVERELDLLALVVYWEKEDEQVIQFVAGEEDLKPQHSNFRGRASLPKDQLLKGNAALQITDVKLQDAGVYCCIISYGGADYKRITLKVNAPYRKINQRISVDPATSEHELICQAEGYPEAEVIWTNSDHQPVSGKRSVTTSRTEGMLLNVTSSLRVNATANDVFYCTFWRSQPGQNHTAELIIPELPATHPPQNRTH

Chain of natively expressed mouse PD-L1 on mouse tumor cells (Q9EP73 19-290): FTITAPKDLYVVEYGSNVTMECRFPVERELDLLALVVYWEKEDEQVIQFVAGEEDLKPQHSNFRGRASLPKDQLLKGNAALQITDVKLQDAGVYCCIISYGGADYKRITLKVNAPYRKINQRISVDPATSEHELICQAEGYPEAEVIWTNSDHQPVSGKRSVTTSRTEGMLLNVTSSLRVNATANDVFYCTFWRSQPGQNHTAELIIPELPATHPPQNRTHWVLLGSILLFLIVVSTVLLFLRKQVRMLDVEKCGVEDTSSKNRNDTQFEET

Binder | binding result [1] | binding result [2]
anti-mouse PD-L1 hybridoma clone 17 (antibody, V domains shown) VH: EVQLVESGGGLVQPGASLKLSCVASGFTFSDYWMSWVRQNPGKTMEWIGDIKYDGSYTDYAPSLKNRFTISRDNAKSTLYLQMSNVRSEDTATYYCTRATGRRDGYYPTDYFDYWGQGVMVTVSS VL: DIVLTQSPALAVSLGQRATISCWASQSVSISRYNLMHWYQQKPGQQPKLLIYRASNLAGIPPRFSGSGSGTDFTLTINPVQADDIATYYCQQSRESPNTFGAGTKLELK | binds | 
recombinant mouse B7-1/CD80 Fc chimera His-tag protein (Fc fusion, UniProt Q00609 38-246, looked up, conjugated with DyLight-650) VDEQLSKSVKDKVLLPCRYNSPHEDESEDRIYWQKHDKVVLSVIAGKLKVWPEYKNRTLYDNTTYSLIILGLVLSDRGTYSCVVQKKERGTYEVKHLALVKLSIKADFSTPNITESGNPSADTKRITCFASGGFPKPRFSWLENGRELPGINTTISQDPESELYTISSQLDFNTTRNHTIKCLIKYGDAHVSEDFTWEKPPEDPPDSKN |  | binds

Reference: paper PMC7831362 (mAbs, 2021)
